Data reported in patent US20210332115A1 (Sanofi, published 2021).

T1: C2a (prepared from C2) (UniProt P06681 244-752, limits assumed)
T1 construct: domain: C2a
T1 sequence (looked up): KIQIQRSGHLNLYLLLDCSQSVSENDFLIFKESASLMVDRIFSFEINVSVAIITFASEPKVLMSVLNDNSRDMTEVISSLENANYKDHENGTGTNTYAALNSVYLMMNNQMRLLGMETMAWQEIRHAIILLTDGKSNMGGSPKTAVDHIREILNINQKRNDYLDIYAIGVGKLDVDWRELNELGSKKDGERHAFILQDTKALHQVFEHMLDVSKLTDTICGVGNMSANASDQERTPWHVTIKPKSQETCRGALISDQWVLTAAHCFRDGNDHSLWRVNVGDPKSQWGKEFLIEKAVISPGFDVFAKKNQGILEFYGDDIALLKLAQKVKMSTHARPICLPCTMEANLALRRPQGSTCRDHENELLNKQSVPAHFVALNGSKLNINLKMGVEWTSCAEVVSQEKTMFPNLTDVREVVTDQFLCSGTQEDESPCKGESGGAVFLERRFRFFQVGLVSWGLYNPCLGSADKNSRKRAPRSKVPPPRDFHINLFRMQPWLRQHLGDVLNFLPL

T2: aCls (Comptech A104) (UniProt P09871 16-688)
T2 construct: the active enzyme is a two-chain form of this precursor; also called aC1s
T2 sequence (looked up): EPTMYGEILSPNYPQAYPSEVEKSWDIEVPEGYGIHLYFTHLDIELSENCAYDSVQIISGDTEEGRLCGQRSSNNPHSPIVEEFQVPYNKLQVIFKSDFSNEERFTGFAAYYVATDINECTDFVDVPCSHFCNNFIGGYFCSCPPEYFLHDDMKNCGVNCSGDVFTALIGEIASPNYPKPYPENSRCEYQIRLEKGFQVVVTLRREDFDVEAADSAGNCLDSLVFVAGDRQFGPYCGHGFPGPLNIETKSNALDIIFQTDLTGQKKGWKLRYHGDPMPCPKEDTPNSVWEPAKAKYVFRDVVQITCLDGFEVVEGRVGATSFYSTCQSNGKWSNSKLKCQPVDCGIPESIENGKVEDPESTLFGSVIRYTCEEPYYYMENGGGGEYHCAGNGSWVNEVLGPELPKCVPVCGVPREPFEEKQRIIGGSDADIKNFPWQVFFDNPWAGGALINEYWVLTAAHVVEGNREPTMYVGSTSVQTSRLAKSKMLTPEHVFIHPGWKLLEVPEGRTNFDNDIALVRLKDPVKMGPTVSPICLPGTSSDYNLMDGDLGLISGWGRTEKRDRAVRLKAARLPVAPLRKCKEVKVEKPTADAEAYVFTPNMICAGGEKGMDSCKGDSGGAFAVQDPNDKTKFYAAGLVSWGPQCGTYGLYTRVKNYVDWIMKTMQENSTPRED

T3: C1r (Comptech A102) (UniProt P00736 18-705)
T3 sequence (looked up): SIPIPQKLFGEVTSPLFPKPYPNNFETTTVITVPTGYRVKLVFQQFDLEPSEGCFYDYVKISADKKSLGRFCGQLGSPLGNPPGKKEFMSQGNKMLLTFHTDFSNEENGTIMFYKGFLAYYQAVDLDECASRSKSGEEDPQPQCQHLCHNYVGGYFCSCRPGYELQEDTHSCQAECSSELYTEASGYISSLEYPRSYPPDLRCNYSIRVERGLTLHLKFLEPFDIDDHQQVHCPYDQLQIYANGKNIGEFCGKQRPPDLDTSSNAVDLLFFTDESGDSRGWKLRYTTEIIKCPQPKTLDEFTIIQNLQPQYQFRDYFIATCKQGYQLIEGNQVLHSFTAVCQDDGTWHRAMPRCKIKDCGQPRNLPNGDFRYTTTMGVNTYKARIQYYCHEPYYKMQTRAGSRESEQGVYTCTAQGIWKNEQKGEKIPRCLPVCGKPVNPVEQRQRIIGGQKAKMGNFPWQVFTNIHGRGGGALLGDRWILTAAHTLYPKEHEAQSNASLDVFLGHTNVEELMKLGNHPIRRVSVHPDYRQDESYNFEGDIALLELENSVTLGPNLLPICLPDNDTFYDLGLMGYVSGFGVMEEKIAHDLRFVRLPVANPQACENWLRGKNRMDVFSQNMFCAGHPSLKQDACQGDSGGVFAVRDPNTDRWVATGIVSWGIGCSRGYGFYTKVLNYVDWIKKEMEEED


Legend:
[1] = target: factor D (Competech A136) (UniProt P00746 26-253); assay: ELISA, target coated at 2.5 µg/mL, biotinylated antibody titrated, streptavidin-HRP, OD450 background subtracted
Chain of factor D (Competech A136) (P00746 26-253 limits assumed): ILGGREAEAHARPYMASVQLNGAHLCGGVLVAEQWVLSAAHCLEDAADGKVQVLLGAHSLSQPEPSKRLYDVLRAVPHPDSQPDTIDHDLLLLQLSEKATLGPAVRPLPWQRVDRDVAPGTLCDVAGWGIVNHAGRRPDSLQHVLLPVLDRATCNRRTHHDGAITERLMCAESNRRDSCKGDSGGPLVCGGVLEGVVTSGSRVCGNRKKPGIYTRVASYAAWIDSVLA
Method: (§1) Briefly, complement and plasma proteins were coated onto ELISA plates at 2. 5 μg/mL in PBS overnight at 4° C. Plates were then blocked with Casein for 1 hour at room temperature and washed four times with 1× DPBS/0.05% Tween-20 followed by a single wash with 1× DPBS. Serial dilutions starting at 50 μg/ml of biotinylated chimeric parent or VH6/VK7-IgG4v2 were added to the plate in PBS/0.1%casein/0.1%Tween-20 and incubated for 2 hours at room temperature. Plates were washed as described and a 1:10,000 dilution of streptavidin-HRP (Southern Biotech 7100-05) in PBS/0.1% casein/0.1% Tween-20 was added to the plate and incubated for 30 minutes at room temperature. Plates were again washed and Ultra TMP ELISA (Thermo 34028) was added to the plate for 1 minute, followed by stop solution). OD 450 nm was read in a plate reader and background at 620 nm was subtracted. Both the chimeric parent (FIG. 8A) and the humanized variant (FIG. 8B) show complete specificity for factor Bb.

[2] = target: T1, C2a (prepared from C2); assay: as above
Method: as §1

[3] = target: T2, aCls (Comptech A104); assay: as above
Method: as §1

[4] = target: T3, C1r (Comptech A102); assay: as above
Method: as §1

[5] = target: thrombin (EMD Millipore 605195) (UniProt P00734 328-622); assay: as above
Method: as §1

[6] = target: T4, Homo sapiens factor Bb protein (human, UniProt P00751 260-764); assay: ELISA, factor Bb coated at 2.5 µg/mL, biotinylated antibody titrated, streptavidin-HRP, OD450 background subtracted
T4 construct: Bought from CompTech (A155); also called complement factor Bb; human factor Bb
T4 sequence (P00751 260-764 limits assumed): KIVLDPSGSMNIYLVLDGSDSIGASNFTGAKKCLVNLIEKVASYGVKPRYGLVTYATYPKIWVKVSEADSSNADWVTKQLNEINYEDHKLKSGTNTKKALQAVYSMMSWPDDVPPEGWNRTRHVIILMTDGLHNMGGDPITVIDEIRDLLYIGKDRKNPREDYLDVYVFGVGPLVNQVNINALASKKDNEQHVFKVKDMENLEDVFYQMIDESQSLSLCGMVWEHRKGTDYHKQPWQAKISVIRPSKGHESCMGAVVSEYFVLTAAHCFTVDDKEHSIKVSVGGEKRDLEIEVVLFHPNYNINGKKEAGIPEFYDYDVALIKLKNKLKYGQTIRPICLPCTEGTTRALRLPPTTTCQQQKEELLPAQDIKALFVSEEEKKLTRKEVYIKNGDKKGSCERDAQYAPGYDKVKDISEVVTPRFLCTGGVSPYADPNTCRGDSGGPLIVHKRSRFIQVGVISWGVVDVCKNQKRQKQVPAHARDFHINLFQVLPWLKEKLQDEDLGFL
Method: as §1

[7] = target: T4, Homo sapiens factor Bb protein; assay: cell-based or functional assay

EC50 (read off the curve) [6] [µg/mL]	AP Assay IC50 [7] [nM]	Binder	binding result [1]	binding result [2]	binding result [3]	binding result [4]	binding result [5]
~0.01	24	VH0/Vκ0 (Chimeric) (antibody, V domains shown, also called chimeric antibody) VH: EVQLVESGGALVKPGGSLKLSCAASGFTFSNYAMSWVRQTPEKRLEWVATISNRGSYTYYPDSVKGRFTISRDNAKNTLYLQMSSLRSEDTALYYCARERPMDYWGQGTSVTVSS VL: DIVMTQSHKFMSTSVGDRVSITCKASQDVGTAVAWYQQKPGQSPKLLIYWASTRHTGVPDRFTGSGSGTDFTLTITNVQSEDLAVYFCHQHSSNPLTFGAGTKLELK	no binding (tested: about 10^5 ng/mL (log 5 on the axis))	no binding (tested: about 10^5 ng/mL (log 5 on the axis))	no binding (tested: about 10^5 ng/mL (log 5 on the axis))	no binding (tested: about 10^5 ng/mL (log 5 on the axis))	no binding (tested: about 10^5 ng/mL (log 5 on the axis))
~0.02		VH6/Vκ7-IgG4v2 (antibody, also called VH6/VK7-IgG4v2; VH6/VK7-IgG4v2_HEK) heavy: not shown light: DIQMTQSPSTLSASVGDRVTITCKASQDVGTAVAWYQQKPGKAPKLLIYWASTRHTGVPDRFSGSGSGTDFTLTISSLQAEDFAVYFCHQHSSNPLTFGQGTKLEIKRTVAAPSVFIFPPSDEQLKSGTASVVCLLNNFYPREAKVQWKVDNALQSGNSQESVTEQDSKDSTYSLSSTLTLSKADYEKHKVYACEVTHQGLSSPVTKSFNRGEC	no binding	no binding	no binding	no binding	no binding
